# In publication PMC2115152 (The Journal of Cell Biology, 1988):
# B1: 83-kD nonmuscle caldesmon (natural protein)
# chain: MLSRSGSQGRRCLATLSQIAYQRNDDDEEEAARERRRRARQERLRQKQEEESLGQVTDQVEAHVQNSAPDEESKPATANAQVEGDEEAALLERLARREERRQKRLQEALERQKEFDPTITDGSLSVPSRRMQNNSAENETAEGEEKGESRSGRYEMEETEVVITSYQKNSYQDAEDKKKEEKEEEEEEEKLKGGNLGENQIKDEKIKKDKEPKEEVKNFLDRKKGFTEVKAQNGEFMTHKLKQTENAFSPSRSGGRASGDKEAEGAPQVEAGKRLEELRRRRGETESEEFEKLKQKQQEAALELEELKKKREERRKVLEEEEQRRKQEEADRKAREEEEKRRLKEEIERRRAEAAEKRQKMPEDGLSEDKKPFKCFTPKGSSLKIEERAEFLNKSVQKSGVKSTHQAAVVSKIDSRLEQYTNAIEGTKASKPMKPAASDLPVPAEGVRNIKSMWEKGSVFSSPSASGTPNKETAGLKVGVSSRINEWLTKSPDGNKSPAPKPSDLRPGDVSGKRNLWEKQSVDKVTSPTKV
# Molecular target: F-actin (rabbit, UniProt P68135 1-377)
# Assay: co-sedimentation
binder,measurement,value
B1,stoichiometry N,~6 actin monomers per 83-kD protein
